Measurements from US9386938B2, “Methods for collagen imaging” (Collagen Medical, LLC, priority 2005, dated 2016).
Bridge positions count the residues as written; N and C are the ends. Square brackets hold non-standard residues; d marks the D form. Ends that are not written are not given here. Glu‑DTPA‑Gd = N-terminal Glu-DTPA-Gd chelate (gadolinium DTPA complex on glutamic acid); bb‑DTPA gadolinium tetramer diacid = not defined here; AEEA = NCCOCCOCC(=O)O

How the values were obtained:
human collagen type I = biological target: T1, human collagen type I (Homo sapiens, UniProt P02452+P08123); assay: Dried collagen assay (DCA), percent bound to dried human collagen; type: binding
T1 construct: Acid soluble human collagen extracted from placenta; purchased Sigma C7774; host or cells: human placenta (tissue extract)
T1 sequence (P02452 162-1218 limits assumed): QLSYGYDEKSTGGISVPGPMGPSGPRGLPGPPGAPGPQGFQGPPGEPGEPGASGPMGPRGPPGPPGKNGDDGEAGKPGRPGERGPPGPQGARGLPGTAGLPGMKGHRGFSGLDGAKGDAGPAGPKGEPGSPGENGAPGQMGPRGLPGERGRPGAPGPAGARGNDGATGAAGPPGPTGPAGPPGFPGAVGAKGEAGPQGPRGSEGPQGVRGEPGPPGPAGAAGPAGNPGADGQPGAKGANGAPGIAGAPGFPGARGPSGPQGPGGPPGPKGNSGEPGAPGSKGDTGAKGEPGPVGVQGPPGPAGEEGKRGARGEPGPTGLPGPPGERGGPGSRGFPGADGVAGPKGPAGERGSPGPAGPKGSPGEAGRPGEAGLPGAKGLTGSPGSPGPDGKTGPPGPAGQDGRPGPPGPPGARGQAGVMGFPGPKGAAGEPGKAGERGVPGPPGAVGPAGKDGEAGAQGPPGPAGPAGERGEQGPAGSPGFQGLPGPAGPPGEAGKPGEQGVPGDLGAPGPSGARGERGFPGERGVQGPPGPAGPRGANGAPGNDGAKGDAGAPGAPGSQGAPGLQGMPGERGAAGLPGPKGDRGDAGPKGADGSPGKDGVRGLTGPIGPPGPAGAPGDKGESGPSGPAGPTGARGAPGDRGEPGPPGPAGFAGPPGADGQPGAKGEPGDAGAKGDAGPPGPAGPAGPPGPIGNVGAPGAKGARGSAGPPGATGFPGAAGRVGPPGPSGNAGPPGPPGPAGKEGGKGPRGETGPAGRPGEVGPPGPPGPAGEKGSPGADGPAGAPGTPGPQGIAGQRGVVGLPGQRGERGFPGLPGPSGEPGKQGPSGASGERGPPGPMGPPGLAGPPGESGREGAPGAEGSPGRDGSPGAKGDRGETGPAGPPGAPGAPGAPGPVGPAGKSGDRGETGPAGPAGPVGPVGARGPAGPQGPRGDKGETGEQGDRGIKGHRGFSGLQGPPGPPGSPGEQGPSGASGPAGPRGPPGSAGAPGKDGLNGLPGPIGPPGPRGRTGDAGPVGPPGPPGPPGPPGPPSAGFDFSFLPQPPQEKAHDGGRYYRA
T1 sequence (P08123 80-1119 limits assumed): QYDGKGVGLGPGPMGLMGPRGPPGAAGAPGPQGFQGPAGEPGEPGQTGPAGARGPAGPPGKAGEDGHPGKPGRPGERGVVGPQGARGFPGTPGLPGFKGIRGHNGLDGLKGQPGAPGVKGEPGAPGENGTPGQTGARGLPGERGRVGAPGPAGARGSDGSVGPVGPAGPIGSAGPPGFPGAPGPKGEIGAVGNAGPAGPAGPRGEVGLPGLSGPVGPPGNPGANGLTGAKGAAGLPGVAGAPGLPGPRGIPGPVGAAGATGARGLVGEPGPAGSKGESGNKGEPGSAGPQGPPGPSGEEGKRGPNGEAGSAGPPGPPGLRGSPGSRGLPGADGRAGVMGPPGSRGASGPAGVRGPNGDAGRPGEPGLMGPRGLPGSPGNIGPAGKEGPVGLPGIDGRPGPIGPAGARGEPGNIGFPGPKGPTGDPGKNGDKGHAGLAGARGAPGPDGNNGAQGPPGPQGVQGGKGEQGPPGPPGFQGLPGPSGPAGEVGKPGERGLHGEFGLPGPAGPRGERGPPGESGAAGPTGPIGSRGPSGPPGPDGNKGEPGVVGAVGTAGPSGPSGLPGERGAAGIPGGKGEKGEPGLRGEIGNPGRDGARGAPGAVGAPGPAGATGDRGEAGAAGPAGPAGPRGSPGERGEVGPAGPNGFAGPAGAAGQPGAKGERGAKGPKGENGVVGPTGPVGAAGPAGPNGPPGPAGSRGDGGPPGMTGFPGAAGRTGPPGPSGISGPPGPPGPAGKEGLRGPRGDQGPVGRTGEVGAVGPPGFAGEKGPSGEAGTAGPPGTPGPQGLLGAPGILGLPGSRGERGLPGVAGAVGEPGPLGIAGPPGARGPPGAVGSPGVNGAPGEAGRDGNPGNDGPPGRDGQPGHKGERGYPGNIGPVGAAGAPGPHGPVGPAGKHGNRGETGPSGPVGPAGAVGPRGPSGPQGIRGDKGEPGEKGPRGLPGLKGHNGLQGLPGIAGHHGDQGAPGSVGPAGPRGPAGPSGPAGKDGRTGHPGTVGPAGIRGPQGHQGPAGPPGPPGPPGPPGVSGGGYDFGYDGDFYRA
Experimental: Peptides identified using the phage-display protocol were screened using dried collagen assays (DCA) as described in A.-D. below.
Acid soluble human collagen extracted from placenta (Sigma, cat#C7774, lot#083K375) is dissolved in 15 mM HCl (3.5 mg/ml) by vortexing and gently shaking for 3-4 hours at 4° C. The acid soluble collagen is dissolved against PBS, pH 7.4 (three buffer exchanges are used). […] Percent gelation (fibril formation) of the collagen is determined by incubating 10 μM collagen (3.3 mg/ml) at 37° C. for 6 hours. A typical percent gelation is 60%.

rat collagen type I = biological target: T2, rat collagen type I (Rattus norvegicus, UniProt P02454+P02466); assay: Dried collagen assay (DCA), percent bound to dried rat collagen; type: binding
T2 construct: Rat collagen (acid soluble, type I, rat tail); purchased Upstate USA, Inc 08-115; host or cells: rat tail (tissue extract)
T2 sequence (P02454 152-1207 limits assumed): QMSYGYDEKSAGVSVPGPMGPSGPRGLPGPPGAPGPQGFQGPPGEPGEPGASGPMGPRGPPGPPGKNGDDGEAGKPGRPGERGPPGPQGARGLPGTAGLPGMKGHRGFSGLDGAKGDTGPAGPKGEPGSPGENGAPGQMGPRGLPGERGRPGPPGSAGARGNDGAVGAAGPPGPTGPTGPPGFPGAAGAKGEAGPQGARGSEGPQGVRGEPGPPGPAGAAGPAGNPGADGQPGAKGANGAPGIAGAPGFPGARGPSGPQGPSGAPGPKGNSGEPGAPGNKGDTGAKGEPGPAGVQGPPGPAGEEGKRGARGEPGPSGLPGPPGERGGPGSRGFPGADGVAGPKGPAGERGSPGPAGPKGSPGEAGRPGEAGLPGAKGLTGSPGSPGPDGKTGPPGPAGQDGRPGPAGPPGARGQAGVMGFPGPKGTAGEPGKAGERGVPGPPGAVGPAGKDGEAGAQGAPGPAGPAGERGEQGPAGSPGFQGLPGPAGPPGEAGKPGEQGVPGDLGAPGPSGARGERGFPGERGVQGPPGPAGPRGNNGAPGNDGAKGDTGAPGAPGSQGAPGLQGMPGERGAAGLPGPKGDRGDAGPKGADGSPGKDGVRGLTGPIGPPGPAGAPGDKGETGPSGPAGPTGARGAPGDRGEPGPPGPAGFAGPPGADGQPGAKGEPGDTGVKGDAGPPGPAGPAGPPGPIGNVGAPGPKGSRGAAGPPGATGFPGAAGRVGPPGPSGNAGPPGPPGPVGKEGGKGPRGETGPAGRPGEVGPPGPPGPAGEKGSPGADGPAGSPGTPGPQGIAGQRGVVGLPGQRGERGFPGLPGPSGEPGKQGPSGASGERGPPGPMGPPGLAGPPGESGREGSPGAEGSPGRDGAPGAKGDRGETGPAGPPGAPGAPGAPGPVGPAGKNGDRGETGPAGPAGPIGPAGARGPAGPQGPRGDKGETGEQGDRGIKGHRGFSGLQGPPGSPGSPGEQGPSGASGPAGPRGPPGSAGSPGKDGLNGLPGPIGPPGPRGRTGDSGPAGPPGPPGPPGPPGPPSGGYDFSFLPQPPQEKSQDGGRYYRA
T2 sequence (P02466 86-1125 limits assumed): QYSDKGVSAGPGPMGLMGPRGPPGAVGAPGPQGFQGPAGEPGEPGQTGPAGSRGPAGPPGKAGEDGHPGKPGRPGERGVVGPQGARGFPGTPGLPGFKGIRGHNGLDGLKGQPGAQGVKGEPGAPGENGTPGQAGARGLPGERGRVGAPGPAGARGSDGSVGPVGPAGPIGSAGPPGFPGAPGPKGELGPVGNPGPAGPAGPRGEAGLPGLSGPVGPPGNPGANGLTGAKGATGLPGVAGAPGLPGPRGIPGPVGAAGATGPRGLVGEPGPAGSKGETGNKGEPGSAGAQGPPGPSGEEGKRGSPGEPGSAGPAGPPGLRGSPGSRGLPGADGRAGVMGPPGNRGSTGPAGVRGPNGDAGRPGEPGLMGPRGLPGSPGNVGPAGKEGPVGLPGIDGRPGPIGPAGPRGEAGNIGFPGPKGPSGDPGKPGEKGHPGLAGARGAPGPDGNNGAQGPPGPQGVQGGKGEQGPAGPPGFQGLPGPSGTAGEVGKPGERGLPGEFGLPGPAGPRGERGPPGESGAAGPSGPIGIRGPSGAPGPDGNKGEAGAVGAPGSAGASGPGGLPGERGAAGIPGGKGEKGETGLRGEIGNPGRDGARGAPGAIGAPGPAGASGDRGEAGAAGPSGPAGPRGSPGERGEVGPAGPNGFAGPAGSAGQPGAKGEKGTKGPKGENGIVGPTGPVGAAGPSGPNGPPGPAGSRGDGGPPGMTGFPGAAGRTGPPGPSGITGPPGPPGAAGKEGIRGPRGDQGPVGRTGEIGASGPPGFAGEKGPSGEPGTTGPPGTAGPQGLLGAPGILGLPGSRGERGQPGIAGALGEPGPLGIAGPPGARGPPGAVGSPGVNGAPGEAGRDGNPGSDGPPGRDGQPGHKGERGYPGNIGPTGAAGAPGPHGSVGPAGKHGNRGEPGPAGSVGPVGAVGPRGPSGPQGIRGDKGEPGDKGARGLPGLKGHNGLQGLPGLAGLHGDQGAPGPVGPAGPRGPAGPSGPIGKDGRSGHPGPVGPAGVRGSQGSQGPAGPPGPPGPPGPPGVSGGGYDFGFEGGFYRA
Experimental: For the final assay, a 1:10 volume of 10×PBS (100 mM NaH2PO4, 1.5 M NaCl pH 7.4) is added to the collagen solution (final 1×PBS) and incubated at 37° C. for 2 hours. The gelation is typically 90%.

[1] = test system: perfused Langendorff rat heart; assay: Equilibrium binding to perfused Langendorff rat heart
Experimental: (§1) After deep anesthesia with pentobarbital (80 mg/kg ip), the chest cavity of a male Sprague Dawley rat (300 g) was opened, retracted and the heart was removed immediately and placed in an ice-cold normal Krebs-Henseleit (K-H) solution (NaCl, 118 mM; KCl, 4.7 mM; CaCl2, 2.5 mM; MgSO4, 1.2 mM; KH2PO4, 1.2 mM; NaHCO3, 25 mM; glucose, 5.5 mM). A K-H buffer filled 20 Gauge needle was inserted into the apex of the heart penetrating into the bottom of the chamber. This was attached to a pressure transducer used to record and monitor heart function. Perfusion pressure (˜60 mmHg) was monitored using a second transducer. The heart was perfused at a constant flow rate of 10-12 mL/min with 37° C. Krebs-Henseleit buffer saturated with a mixture of 95% O2 and 5% CO2 gas. The heart was paced at 300 beats/min.
Two peptide test articles, a high collagen binding peptide (SEQ ID NO: 144) and a low collagen binding peptide (SEQ ID NO: 173), are compared to GdDTPA. The appropriate test article was added to the K-H buffer solution to a total concentration of either 3 or 30 μM. Also added to the K-H buffer was a radiotracer analog of each peptide or GdDTPA. For the peptides, the radiotracer was an aliquot of the appropriate 1-125 labeled peptide derivative (see Example 5 for protocol). For GdDTPA, the tracer added was Tc-99m labeled DTPA. The amount of radioactivity added to the buffer solution was 1-5 μCi.
The heart was perfused for a period of 10 minutes and the perfusion solution was recycled through the heart. The total volume of K-H buffer used was 50-60 mL. After 10 min, the heart was removed from the apparatus and any connective tissue was removed. The heart was opened, fluid in the chambers drained, and the interior blotted dry with filter paper. The heart was then weighed and the radioactivity in the heart measured with a Packard Cobra 5003 Gamma Scintillation counter. An aliquot of the K-H buffer was also weighed and counted. Studies were performed at least in duplicate.
The dual peptide gadolinium tetramer (Compound ID 803) was compared to GdDTPA. Compound ID 803 and GdDTPA were added to the K-H buffer solution to a total concentration of 3 μM. Also added to the K-H buffer was a radiotracer analog of Compound ID 803 or GdDTPA. For Compound ID 803, the radiotracer was an aliquot of the In-111 labeled compound. For GdDTPA, the tracer added was Tc-99m labeled DTPA. The amount of radioactivity added to the buffer solution was 1-5 μCi.

[2] = test system: perfused Langendorff rat heart; assay: Washout kinetics from perfused Langendorff rat heart; conditions: perfusion with buffer for 10 minutes
Experimental: as §1
A Langendorff rat heart preparation was perfused with K-H buffer at a rate of 10-12 mL/min. A one mL solution containing SEQ ID NO: 144 (300 μM), radiolabeled (I-125) SEQ ID NO: 144 (1-6 μCi), GdDTPA (300 μM), and radiolabeled (Tc-99m) DTPA (5-8 μCi) was infused into the heart at a rate of 1 mL/min. After the infusion was finished, the heart was either removed or perfusion was allowed to continue for an additional 10 minutes and then the heart was removed. The perfusion buffer was not recirculated through the heart. After removal of any connective tissue, the heart was opened, fluid in the chambers drained, and the interior blotted dry with filter paper. The heart was then weighed and the radioactivity in the heart measured with a Packard Cobra 5003 Gamma Scintillation counter. […] An aliquot of the K-H buffer was also weighed and counted. Concentration estimates were decay corrected. Studies were performed at least in duplicate.
A Langendorff rat heart preparation was perfused with K-H buffer at a rate of 10-12 mL/min. […] The heart was then weighed and the radioactivity in the heart measured with a Packard Cobra 5003 Gamma Scintillation counter. […] An aliquot of the K-H buffer was also weighed and counted. […]

[3] = Table 2, TN-8 peptides, 5 μM peptide, PBS pH 7.4
[4] = Table 4, TN-10 peptides, 5 μM peptide, PBS pH 7.4
[5] = Table 13, TN-10 peptides with -G- linker, alanine scanning
[6] = Table 14, TN-6 peptides, D-amino acid scanning
[7] = Table 15, TN-10 peptides with -G- linker, D-amino acid scanning

2 (WGWCEWAQNNCWNY) [compound 2]
Dried Human Collagen Binding (human collagen type I; [3]): 14%

3 (PWWCHEMPSMCFGF) [compound 3]
Dried Human Collagen Binding (human collagen type I; [3]): 2%

36 (SWSCGGDHNAWKCQYS) [compound 36]
Dried Human Collagen Binding (human collagen type I; [4]): 7%

37 (LWNCHGTDANWKCVLN) [compound 37]
Dried Human Collagen Binding (human collagen type I; [4]): 7%

38 (GWSCHGDAADWPCQWS) [compound 38]
Dried Human Collagen Binding (human collagen type I; [4]): 6%

39 (GWQCSGDASVWNCDWI) [compound 39]
Dried Human Collagen Binding (human collagen type I; [4]): 6%

65 (KWECVHTKGEWYCETK) [compound 65]
Dried Human Collagen Binding (human collagen type I; [4]): 7%

112 (AKACSVHDEFGCLIS; disulfide 4-12 (inferred); not fully specified (C-terminus)) [compound 112]
Dried Human Collagen Binding (human collagen type I; Table 8, TN-9 peptides): 9%

113 (FSECVWVNAYQCEYF; disulfide 4-12 (inferred); not fully specified (C-terminus)) [compound 113]
Dried Human Collagen Binding (human collagen type I; Table 8, TN-9 peptides): 3%

130 (WWACQKGRHDWEKCRWL; disulfide 4-14 (inferred); not fully specified (C-terminus)) [compound 130]
Dried Human Collagen Binding (human collagen type I; Table 11, TN-11 peptides): 32%

137 (YHACYQAGCWAW; disulfide 4-9 (inferred); not fully specified (C-terminus)) [compound 137]
% Collagen Binding Dried Rat (rat collagen type I; Table 12, TN-6 peptides, alanine scanning): 7%

142 (QWTCSADEYTWHCNYE; disulfide 4-13 (inferred); not fully specified (C-terminus)) [compound 142]
% Collagen Binding Dried Rat (rat collagen type I; [5]): 6%

147 (QWTCSGDEYTAHCNYE; disulfide 4-13 (inferred); not fully specified (C-terminus)) [compound 147]
% Collagen Binding Dried Human (human collagen type I; [5]): 5%

159 (YHACYQAGCWIW) [compound 159]
% Collagen Binding Dried Human (human collagen type I; [6]): 7%

163 (YHACYQAGCWIW) [compound 163]
% Collagen Binding Dried Rat (rat collagen type I; [6]): 53%

165 (QWTCSGDEYTWHCNYE) [compound 165]
% Collagen Binding Dried Human (human collagen type I; [7]): 2%
% Collagen Binding Dried Rat (rat collagen type I; [7]): 4%

166 (QWTCSGDEYTWHCNYE) [compound 166]
% Collagen Binding Dried Human (human collagen type I; [7]): 2%
% Collagen Binding Dried Rat (rat collagen type I; [7]): 3%

167 (QWTCSGDEYTWHCNYE) [compound 167]
% Collagen Binding Dried Human (human collagen type I; [7]): 4%

168 (QWTCSGDEYTWHCNYE) [compound 168]
% Collagen Binding Dried Human (human collagen type I; [7]): 3%
% Collagen Binding Dried Rat (rat collagen type I; [7]): 2%

169 (QWTCSGDEYTWHCNYE) [compound 169]
% Collagen Binding Dried Rat (rat collagen type I; [7]): 4%

171 (QWTCSGDEYTWHCNYE) [compound 171]
% Collagen Binding Dried Rat (rat collagen type I; [7]): 6%

173 (QWTCSGDEYTWHCNYE) [compound 173]
% Collagen Binding Dried Human (human collagen type I; [7]): 5%
% Collagen Binding Dried Rat (rat collagen type I; [7]): 4%

174 (QWTCSGDEYTWHCNYE) [compound 174]
% Collagen Binding Dried Human (human collagen type I; [7]): 5%

175 (QWTCSGDEYTWHCNYE) [compound 175]
% Collagen Binding Dried Human (human collagen type I; [7]): 2%
% Collagen Binding Dried Rat (rat collagen type I; [7]): 2%

176 (QWTCSGDEYTWHCNYE) [compound 176]
% Collagen Binding Dried Human (human collagen type I; [7]): 2%
% Collagen Binding Dried Rat (rat collagen type I; [7]): 2%

190 ({Glu‑DTPA‑Gd-AEEA}-GQWTCSGDEYTWHCNY[dE]-NH2; disulfide 5-14 (inferred); also: gadolinium complex of Glu-DTPA) [compound 190]
% Binding Collagen I Rat (rat collagen type I; Table 17, chelate conjugates): 5%

CC(C)C[C@H](NC(=O)[C@@H]1CSSC[C@H](NC(=O)[C@H](Cc2c[nH]cn2)NC(=O)[C@H](Cc2c[nH]c3ccccc23)NC(=O)[C@H](CCC(N)=O)NC(=O)CNC(=O)CC[C@H](NC(=O)[C@H](CNC(=O)[C@@H](CN(CCN(CC(=O)O)CC(=O)O)CC(=O)O)N(CC(=O)O)CC(=O)O)NC(=O)[C@@H](CN(CCN(CC(=O)O)CC(=O)O)CC(=O)O)N(CC(=O)O)CC(=O)O)C(=O)NCCCCCCNC(=O)[C@H](CCC(=O)NCC(=O)N[C@@H](CCC(N)=O)C(=O)N[C@@H](Cc2c[nH]c3ccccc23)C(=O)N[C@@H](Cc2c[nH]cn2)C(=O)N[C@H]2CSSC[C@@H](C(=O)N[C@@H](CC(C)C)C(=O)N[C@@H](Cc3ccc(O)cc3)C(=O)NCC(N)=O)NC(=O)[C@H](Cc3ccc(O)cc3)NC(=O)[C@H](Cc3c[nH]cn3)NC(=O)[C@H](Cc3c[nH]cn3)NC(=O)[C@@H]3CCCN3C(=O)[C@H](Cc3ccccc3)NC(=O)[C@H](CO)NC(=O)[C@H]([C@@H](C)O)NC(=O)[C@H]([C@@H](C)O)NC2=O)NC(=O)[C@H](CNC(=O)[C@@H](CN(CCN(CC(=O)O)CC(=O)O)CC(=O)O)N(CC(=O)O)CC(=O)O)NC(=O)[C@@H](CN(CCN(CC(=O)O)CC(=O)O)CC(=O)O)N(CC(=O)O)CC(=O)O)C(=O)N[C@@H]([C@@H](C)O)C(=O)N[C@@H]([C@@H](C)O)C(=O)N[C@@H](CO)C(=O)N[C@@H](Cc2ccccc2)C(=O)N2CCC[C@H]2C(=O)N[C@@H](Cc2c[nH]cn2)C(=O)N[C@@H](Cc2c[nH]cn2)C(=O)N[C@@H](Cc2ccc(O)cc2)C(=O)N1)C(=O)N[C@@H](Cc1ccc(O)cc1)C(=O)NCC(N)=O [Comp ID 803]
Heart ([1]; 10 min recirculating perfusion, 3 μM in K-H buffer, radiotracer counting): 9.1 ± 1.8 nmol/g
Heart:Buffer ([1]; 10 min recirculating perfusion, buffer 3.0 μM): 3.02 ± 0.62

Compound ID 803: dual peptide gadolinium tetramer; bb-DTPA tetramer diacid coupled to N-terminus of SEQ ID NO. 264 peptide ({bb‑DTPA gadolinium tetramer diacid}-GQWHCTTSFPHHYCLYG; disulfide 5-14 (inferred); not fully specified (C-terminus); printed as G-Q-W-H-C-T-T-S-F-P-H-H-Y-C-L-Y-G; reading uncertain; also: dual peptide tetramer: two peptide chains on one diacid, Gd chelated) [dual peptide gadolinium tetramer; 264 peptide]
heart uptake relative to GdDTPA ([1]; 10 minutes): about 7 times
amount remaining in heart at 10 minutes after infusion relative to 0 minutes post infusion [2]: 54%
